# Experimental data from patent publication US20120178124A1, “STEROL SIDE CHAIN-CLEAVING ENZYME PROTEIN AND USE THEREOF” (MITSUBISHI CHEMICAL CORPORATION, priority 2009, published 2012).
# Legend:
# Format in all cases: biochemical
# [1] = Analysis of the optimum pH, conversion of 4-cholesten-3-one by cell-free extract; details: for Specific activity: 4-cholesten-3-one to progesterone, 30° C., 14 hours
# Protocol: (§1) To 20 ml of the cell suspension prepared in (2) above, 680 μl of X10 Bug Buster (Novagen), 20 μl of Benzonase (Novagen), and 2 ml of 40 mg/ml lysozyme were added, and the obtained mixture was then shaken at 30° C. for 30 minutes to disintegrate the cells. Thereafter, the reaction solution was centrifuged to obtain the cell-free extract. The obtained, approximately 20 ml of cell-free extract was dialyzed against 1 L of Buffer R (20 mM KPB pH 7.4, 20% glycerol) two times, and the deposited precipitate was then removed by centrifugation. The cell-free extract obtained as a supernatant herein was used in the subsequent experiments.
# Using the cell-free extract prepared in (3) above, conversion of 4-cholesten-3-one was carried out at various pH values. The reaction solution was prepared, such that 1 ml of Buffer R comprised […] CYP204A1 or […] CYPSS204A, 64 μg/ml spinach-derived ferredoxin, a 0.1 U/ml spinach-derived ferredoxin reductase protein, 3 U/ml glucose dehydrogenase, 60 mM glucose, 50 μg/ml 4-cholesten-3-one, 2 mM NADH, and 2 mM NADPH. Then, 562 μl of 200 mM Buffer having various pH values was added to 1 ml of the reaction solution, so as to adjust the pH of the reaction solution. The reaction was initiated by the addition of NADH and NADPH, and it was carried out at 200 rpm at 30° C. for 14 hours. Thereafter, 1.5 ml of ethyl acetate was added to the reaction solution to terminate the reaction, and extraction was carried out. Then, extraction was carried out again with 0.75 ml of ethyl acetate. The obtained ethyl acetate phase was solidified using evaporator, and the residue was then dissolved in 200.d of methanol. Thereafter, progesterone was detected by HPLC analysis. The enzyme protein activity for conversion of 4-cholesten-3-one to progesterone under various pH conditions is shown in Table 1. The enzyme protein activity was indicated by the amount (g) of progesterone generated per hour per mol of P450.
# [2] = Analysis of the optimum temperature, conversion of 4-cholesten-3-one by cell-free extract; details: Tris-HCl pH 7.5, 4 hours, 4-cholesten-3-one to progesterone
# Protocol: as §1
# Using the cell-free extract prepared in (3) above, conversion of 4-cholesten-3-one was carried out at […]. The reaction solution was prepared, such that 1 ml of the buffer comprised 215 pmol/ml CYP204A1 or 391 pmol/ml CYPSS, 64 μg/ml spinach-derived ferredoxin, 0.1 U/ml spinach-derived ferredoxin reductase protein, 3 U/ml glucose dehydrogenase, 60 mM glucose, 50 μg/ml 4-cholesten-3-one, 2 mM NADH, and 2 mM NADPH. Tris-HCl was added to the reaction solution so as to adjust it to pH 7.5. The reaction was initiated by addition of NADH and NADPH, and it was carried out at 200 rpm for 4 hours, under temperature conditions of 10° C., 15° C., 20° C., 25° C., or 30° C. Thereafter, 1.5 ml of ethyl acetate was added to the reaction solution to terminate the reaction, and extraction was carried out. Then, extraction was carried out again with 0.75 ml of ethyl acetate. The obtained ethyl acetate phase was solidified using evaporator, and the residue was then dissolved in 200 μl of methanol. Thereafter, progesterone was detected by HPLC analysis. The enzyme protein activity for conversion of 4-cholesten-3-one to progesterone under various temperature conditions is shown in Table 1.
# [3] = pH stability test of cell-free extract; details: for Relative activity: 140 hr versus 0 hr, 6° C.; for Activity 0 hr: immediately after mixing, reaction 15° C., 4 hours, pH 7.5
# Protocol: as §1
# 0.5 ml of the cell-free extract prepared in (3) above was mixed with 0.5 ml of 50 mM buffer having various pH values, pH was then measured, and the mixture was then conserved at 6° C. for 140 hours. […] Using the prepared cell-free extracts having various pH values, conversion of 4-cholesten-3-one was carried out. The reaction was carried out, immediately after the enzyme protein solution was mixed with buffers having various pH values and after the mixed solution was conserved for 140 hours, so as to examine the stability. The reaction solution was prepared, such that 1 ml of the buffer comprised an enzyme protein solution of CYP204A1 or CYPSS having various pH values, 64 μg/ml spinach-derived ferredoxin, 0.1 U/ml spinach-derived ferredoxin reductase protein, 3 U/ml glucose dehydrogenase, 60 mM glucose, 50 μg/ml 4-cholesten-3-one, 2 mM NADH, and 2 mM NADPH. To the reaction solution, 562 μl of 200 mM Tris-HCl was added, so as to adjust the reaction solution to pH 7.5. It was confirmed that the reaction solution maintained pH 7.5, even though enzyme protein solutions having various pH values were added thereto. The reaction was initiated by addition of NADH and NADPH, and it was carried out at 200 rpm at 15° C. for 4 hours. Thereafter, 1.5 ml of ethyl acetate was added to the reaction solution to terminate the reaction, and extraction was carried out. Then, extraction was carried out again with 0.75 ml of ethyl acetate. The obtained ethyl acetate phase was solidified using an evaporator, and the residue was then dissolved in 200 μl of methanol. Thereafter, progesterone was detected by HPLC analysis.
molecule,measurement,setting,value
"CYP204A1: P450scc from Novosphingobium aromaticivorans ATCC 700278, amino acid sequence SEQ ID NO: 23 (protein, Novosphingobium aromaticivorans) MARAATAAGNGLPLLDGGVPLLGHLAQFFRDPVSVLKRGYRSKGRLFAMNFMGQRMNVMLGPEHNRFFFEETDKLLSIRESMPFFLKMFSPEFYSFAEMDEYLRQRSIIMPRFKAASMKQYVPVMVEESLNLVERLGEEGEFDLIPTLGPVVMDIAAHSFMGREFHEKLGHEFFELFRDFSGGMEFVLPLWLPTPKMVKSQRAKRKLHAILQSWIDKRRAAPLDPPDFFQTMIETKYPDGRPVPDEIIRHLILLLVWAGHETTAGQVSWALADLLQNPDYQKVLRGEISSLLGGSDGRDLGWEQAVAMEKMDLALRETERLHPVAYMLSRKARADIERDGYVIRKGEFVLLAPSVSHRMEETFRNPDAYDPERFNPANPDAQIESNSLIGFGGGVHRCAGVNFARMEMKVLVAILLQNFDMELMDEVRPIAGASTYWPAQPCRVRYRRRKLDGSEAGADMAALARAAGCPAHT",Specific activity,[1]; KPB pH 6.2,0 g/h/mol
same,Specific activity,[1]; KPB pH 6.7,0 g/h/mol
same,Specific activity,[1]; KPB pH 7.1,0 g/h/mol
same,Specific activity,[1]; KPB pH 7.4,0 g/h/mol
same,Specific activity,[1]; KPB pH 7.9,0 g/h/mol
same,Specific activity,[1]; TES pH 6.6,0 g/h/mol
same,Specific activity,[1]; TES pH 6.8,0 g/h/mol
same,Specific activity,[1]; TES pH 7.3,39 g/h/mol
same,Specific activity,[1]; TES pH 7.5,97 g/h/mol
same,Specific activity,[1]; TES pH 8.0,82 g/h/mol
same,Specific activity,[1]; Tris-HCl pH 7.5,207 g/h/mol
same,Specific activity,[1]; Tris-HCl pH 8.2,114 g/h/mol
same,Specific activity,[1]; Tris-HCl pH 8.7,0 g/h/mol
same,optimum pH (pH of highest activity),[1]; conversion of 4-cholesten-3-one to progesterone,7.5
same,Specific activity,[2]; 10° C.,507 g/h/mol
same,Specific activity,[2]; 15° C.,698 g/h/mol
same,Specific activity,[2]; 20° C.,719 g/h/mol
same,Specific activity,[2]; 25° C.,550 g/h/mol
same,Specific activity,[2]; 30° C.,285 g/h/mol
same,Relative activity,[3]; AcB pH 6.0,24%
same,Activity 140 hr,"[3]; AcB pH 6.0, conserved at 6° C. for 140 hours",0.5 µg/mL
same,Activity 0 hr,[3]; AcB pH 6.0,2.1 µg/mL
same,Relative activity,[3]; KPB pH 6.7,53%
same,Activity 140 hr,"[3]; KPB pH 6.7, conserved at 6° C. for 140 hours",1 µg/mL
same,Activity 0 hr,[3]; KPB pH 6.7,1.9 µg/mL
same,Relative activity,[3]; KPB pH 7.2,65%
same,Activity 140 hr,"[3]; KPB pH 7.2, conserved at 6° C. for 140 hours",1.3 µg/mL
same,Activity 0 hr,[3]; KPB pH 7.2,2 µg/mL
same,Relative activity,[3]; KPB pH 7.6,70%
same,Activity 140 hr,"[3]; KPB pH 7.6, conserved at 6° C. for 140 hours",1.4 µg/mL
same,Activity 0 hr,[3]; KPB pH 7.6,2 µg/mL
same,pH at which most stable,"[3]; KPB, conserved at 6° C. for 140 hours",7.6
same,Relative activity,[3]; TES pH 7.5,68%
same,Activity 140 hr,"[3]; TES pH 7.5, conserved at 6° C. for 140 hours",1.5 µg/mL
same,Activity 0 hr,[3]; TES pH 7.5,2.2 µg/mL
same,Relative activity,[3]; Tris pH 7.4,62%
same,Activity 140 hr,"[3]; Tris pH 7.4, conserved at 6° C. for 140 hours",1.3 µg/mL
same,Activity 0 hr,[3]; Tris pH 7.4,2.1 µg/mL
same,Relative activity,[3]; Tris pH 8.1,50%
same,Activity 140 hr,"[3]; Tris pH 8.1, conserved at 6° C. for 140 hours",1 µg/mL
same,Activity 0 hr,[3]; Tris pH 8.1,2 µg/mL
same,Relative activity,[3]; Tris pH 8.9,35%
same,Activity 140 hr,"[3]; Tris pH 8.9, conserved at 6° C. for 140 hours",0.7 µg/mL
same,Activity 0 hr,[3]; Tris pH 8.9,2 µg/mL
